Test results: paper PMC10397247

Experiments:
Test in all cases: two-hybrid library CCNG1;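 also: natural log of median RNA to DNA barcode read ratio; higher means stronger binding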
4H370-bA = molecular target: T1, 4H370-bA
T1 chain: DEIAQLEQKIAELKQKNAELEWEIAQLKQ

4H3782-bA = molecular target: T2, 4H3782-bA
T2 chain: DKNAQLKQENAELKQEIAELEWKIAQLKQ

4H3843-bA = molecular target: T3, 4H3843-bA
T3 chain: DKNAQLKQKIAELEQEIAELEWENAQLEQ

4H4001-bA = molecular target: T4, 4H4001-bA
T4 chain: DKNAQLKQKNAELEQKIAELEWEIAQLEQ

4H462-bA = molecular target: T5, 4H462-bA
T5 chain: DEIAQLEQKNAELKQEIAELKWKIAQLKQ

4H568-bA = molecular target: T6, 4H568-bA
T6 chain: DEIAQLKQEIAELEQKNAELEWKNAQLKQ

4H607-bA = molecular target: T7, 4H607-bA
T7 chain: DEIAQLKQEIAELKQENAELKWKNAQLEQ

4H687-bA = molecular target: T8, 4H687-bA
T8 chain: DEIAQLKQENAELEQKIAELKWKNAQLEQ

4H72-bA = molecular target: T9, 4H72-bA
T9 chain: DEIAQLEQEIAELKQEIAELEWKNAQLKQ

4H797-bA = molecular target: T10, 4H797-bA
T10 chain: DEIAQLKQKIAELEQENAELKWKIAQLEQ

4H883-bA = molecular target: T11, 4H883-bA
T11 chain: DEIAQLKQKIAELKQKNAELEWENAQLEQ

4H918-bA = molecular target: T12, 4H918-bA
T12 chain: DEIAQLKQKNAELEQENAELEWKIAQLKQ

4H953-bA = molecular target: T13, 4H953-bA
T13 chain: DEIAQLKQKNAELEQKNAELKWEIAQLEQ

4H967-bA = molecular target: T14, 4H967-bA
T14 chain: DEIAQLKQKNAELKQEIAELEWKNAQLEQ

interaction score (4H370-bA): 1.12 | interaction score (4H3782-bA): 0.864 | interaction score (4H3843-bA): -0.261 | interaction score (4H4001-bA): -0.375 | interaction score (4H462-bA): 1.39 | interaction score (4H568-bA): 1.81 | interaction score (4H607-bA): -0.647 | interaction score (4H687-bA): -0.346 | interaction score (4H72-bA): 0.634 | interaction score (4H797-bA): -0.315 | interaction score (4H883-bA): -0.545 | interaction score (4H918-bA): -0.552 | interaction score (4H953-bA): -1.39 | interaction score (4H967-bA): -0.217
B1: 4H370-bA (peptide)
chain: DEIAQLEQKIAELKQKNAELEWEIAQLKQ
